Test results: patent US20100273186A1, “SPLIT MUTANT HYDROLASE FUSION REPORTER AND USES THEREOF” (Promega Corporation, priority 2007, published 2010)

Experiments:
Test in all cases: cell-based or functional assay
hRL (92-311)-FKBP = hRL (92-311)-FKBP (UniProt P27652)
hRL (112-311)-FKBP = hRL (112-311)-FKBP (UniProt P27652)
FKBP-hRL (112-311) = FKBP-hRL (112-311) (UniProt P62942)
FKBP-hRL (92-311) = FKBP-hRL (92-311) (UniProt P62942)
FKBP-hRL (92-311), sequence (P62942 other isoform, or with tags, fused parts or gaps): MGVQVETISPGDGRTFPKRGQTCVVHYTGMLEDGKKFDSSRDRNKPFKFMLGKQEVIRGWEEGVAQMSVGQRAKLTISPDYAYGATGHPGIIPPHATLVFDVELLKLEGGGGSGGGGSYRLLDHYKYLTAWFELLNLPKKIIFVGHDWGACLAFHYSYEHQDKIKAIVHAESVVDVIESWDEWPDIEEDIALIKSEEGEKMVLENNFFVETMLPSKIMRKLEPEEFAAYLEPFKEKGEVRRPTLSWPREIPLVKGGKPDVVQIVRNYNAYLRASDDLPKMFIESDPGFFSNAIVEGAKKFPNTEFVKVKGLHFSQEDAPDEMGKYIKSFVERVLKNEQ

FKBP-hRL (112-311), sequence (P62942 other isoform, or with tags, fused parts or gaps): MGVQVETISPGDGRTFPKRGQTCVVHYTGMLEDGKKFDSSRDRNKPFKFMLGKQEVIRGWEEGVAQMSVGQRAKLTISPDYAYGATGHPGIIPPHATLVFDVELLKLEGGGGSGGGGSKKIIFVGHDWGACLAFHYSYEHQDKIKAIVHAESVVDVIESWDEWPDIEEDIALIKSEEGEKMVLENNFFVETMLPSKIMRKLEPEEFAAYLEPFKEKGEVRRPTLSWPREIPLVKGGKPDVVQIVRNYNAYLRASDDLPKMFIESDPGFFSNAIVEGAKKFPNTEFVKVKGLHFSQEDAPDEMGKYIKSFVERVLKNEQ
hRL (1-91)-FRB, sequence (P27652 other isoform, or with tags, fused parts or gaps): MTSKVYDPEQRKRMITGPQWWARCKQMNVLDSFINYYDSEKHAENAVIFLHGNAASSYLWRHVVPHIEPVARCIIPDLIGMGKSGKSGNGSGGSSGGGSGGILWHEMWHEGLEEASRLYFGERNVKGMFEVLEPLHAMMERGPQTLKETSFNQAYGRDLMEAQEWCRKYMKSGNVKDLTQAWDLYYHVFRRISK
hRL (112-311)-FKBP, sequence (P27652 other isoform, or with tags, fused parts or gaps): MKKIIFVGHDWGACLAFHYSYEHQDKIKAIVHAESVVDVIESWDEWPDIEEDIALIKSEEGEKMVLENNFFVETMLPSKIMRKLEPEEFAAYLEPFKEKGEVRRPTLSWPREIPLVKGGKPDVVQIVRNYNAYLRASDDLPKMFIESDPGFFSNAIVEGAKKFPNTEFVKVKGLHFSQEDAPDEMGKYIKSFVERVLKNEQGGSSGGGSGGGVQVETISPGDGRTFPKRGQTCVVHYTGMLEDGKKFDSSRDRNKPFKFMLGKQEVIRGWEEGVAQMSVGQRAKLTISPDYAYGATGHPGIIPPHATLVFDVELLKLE
hRL (92-311)-FKBP, sequence (P27652 other isoform, or with tags, fused parts or gaps): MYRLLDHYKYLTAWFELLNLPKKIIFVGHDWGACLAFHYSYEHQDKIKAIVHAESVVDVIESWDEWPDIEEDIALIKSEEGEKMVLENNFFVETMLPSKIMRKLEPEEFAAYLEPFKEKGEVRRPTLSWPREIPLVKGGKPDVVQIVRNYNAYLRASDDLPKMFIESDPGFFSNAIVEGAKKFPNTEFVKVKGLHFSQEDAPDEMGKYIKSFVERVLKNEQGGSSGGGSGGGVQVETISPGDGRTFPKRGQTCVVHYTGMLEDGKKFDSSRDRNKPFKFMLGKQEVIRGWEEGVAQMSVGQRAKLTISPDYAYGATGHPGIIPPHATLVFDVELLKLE
hRL (1-111)-FRB, sequence (P27652 other isoform, or with tags, fused parts or gaps): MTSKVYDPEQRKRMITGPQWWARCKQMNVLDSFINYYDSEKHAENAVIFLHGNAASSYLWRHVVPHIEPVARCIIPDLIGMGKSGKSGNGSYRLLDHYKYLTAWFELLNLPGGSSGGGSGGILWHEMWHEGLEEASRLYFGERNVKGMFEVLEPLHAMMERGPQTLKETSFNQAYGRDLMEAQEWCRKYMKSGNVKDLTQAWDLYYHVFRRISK

In the case of “FRB-hRL (1-91) (from UniProt P42345 2021-2113; P27652 1-91)”, the Renilla luciferase activity (PCA, TnT lysate) (fold (+rapamycin against no rapamycin)) (hRL (92-311)-FKBP) is reported as 134.

“FRB-hRL (1-111) (from UniProt P42345 2021-2113; P27652 1-111)” showed a Renilla luciferase activity (PCA, TnT lysate) (fold (+rapamycin against no rapamycin)) (hRL (112-311)-FKBP) of 46 and a Renilla luciferase activity (PCA, TnT lysate) (fold (+rapamycin against no rapamycin)) (FKBP-hRL (112-311)) of 5.3.

“hRL (1-91)-FRB (from UniProt P27652 1-91; P42345 2021-2113)” gave a Renilla luciferase activity (PCA, TnT lysate) (fold (+rapamycin against no rapamycin)) (FKBP-hRL (92-311)) of 8.6.

“hRL (1-111)-FRB (from UniProt P27652 1-111; P42345 2021-2113)” gave a Renilla luciferase activity (PCA, TnT lysate) (fold (+rapamycin against no rapamycin)) (FKBP-hRL (112-311)) of 81.
